Reference: US20250059258A1
Residue numbers refer to the chain shown, from its start.

B1: affinity ligand SEQ ID NO: 80 (designed binder)
chain: MGGGGSAAAGDEADRWAALGAAYAARGDYDRAIEYYQRALELDPNNAWAWWDLGVAYAARGDYDRAIEYYERALELDPDDAHAWFRLGWAYAARGDYDRAIEYYERALELDPEDETARDVLEGARRARQGQAGQGGGSGLNDIFEAQKIEWHECHHHHHH
modifications: biotinylated (AviTag system)
B2: affinity ligand SEQ ID NO: 79 (designed binder)
chain: MGGGGSAAAGDEADRWADLGAAYAARGDYDRAIEYYQRALELDPNNAWAWWDLGVAYAARGDYDRAIEYYQRALELDPNNAVAWRRLGHAYAARGDYDRAIEYYQRALELDPNNELAREQLERARRARHGQAGQGGGSGLNDIFEAQKIEWHECHHHHHH
modifications: biotinylated (AviTag system)
B3: affinity ligand SEQ ID NO: 83 (designed binder)
chain: B2 chain with E122G, H129R
modifications: biotinylated (AviTag system)
B4: affinity ligand SEQ ID NO: 85 (designed binder)
chain: B2 chain with D14E, A17D, D18Y, V55L, R85F, H89W, E119S, Q120E, R123N, H129R
modifications: biotinylated (AviTag system)
B5: affinity ligand SEQ ID NO: 81 (designed binder)
chain: B2 chain with D14E, A17Y, D52E, H89I, L116V, E119D, Q120A, R123Y, H129R
modifications: biotinylated (AviTag system)
B6: affinity ligand SEQ ID NO: 82 (designed binder)
chain: B2 chain with D14G, A17Y, D52E, R85A, H89I, L116V, E119D, Q120A, R123Y, H129R
modifications: biotinylated (AviTag system)
B7: affinity ligand SEQ ID NO: 164 (designed binder)
chain: MGDEAERWYDLGAAYAARGDYDRAIEYYQRALELDPNDAWAWWELGVAYAARGDYDRAIEYYQRALELDLNNAVAWARLGIAYAARGDYDRAIEYYQRALELDPNNEVARDALEYARRARRC
modifications: biotinylated (AviTag system)
B8: affinity ligand SEQ ID NO: 170 (designed binder)
chain: MGDEADRWYDQGAAYAARGDYDRAIEYYERALELDPNDAWAWWELGVAYAARGDYDRAIEYYQRALELDPNDAVAWARLGHAYAARGDYDRAIEYYQRALELDPNNEAARSNLEYARRAAACGLNDIFEAQKIEWHEHHHHHH
modifications: biotinylated (AviTag system)
B9: affinity ligand SEQ ID NO: 174 (designed binder)
chain: B8 chain with D38N
modifications: biotinylated (AviTag system)
B10: affinity ligand SEQ ID NO: 172 (designed binder)
chain: B8 chain with E29Q, D38N, A77S, Y95H, A108V, S111H, N112L, Y115V
modifications: biotinylated (AviTag system)
B11: affinity ligand SEQ ID NO: 173 (designed binder)
chain: B8 chain with E29Q, D38N, A77S, A108V, S111H, N112L, Y115V
modifications: biotinylated (AviTag system)
B12: affinity ligand SEQ ID NO: 171 (designed binder)
chain: B8 chain with D10Y, D38N
modifications: biotinylated (AviTag system)
B13: affinity ligand SEQ ID NO: 165 (designed binder)
chain: MDEAAHWEVQGAAYAARGDYDRAIEYYERALELDPNNAWAWEHLGWAYAARGDFDRAIEYYERALELDPDDAHAWFRLGFAYAARGDYDRAIEYYERALELDPEDELARAELESARRARQGQAGQGWAEFRQRLAAIRTRLEALGGSEAELAAFEREIAAFESELQAYAGAGNPEVEALRREAAAIRDELQAYRHNHHHHHHC
modifications: biotinylated (AviTag system)
B14: affinity ligand SEQ ID NO: 166 (designed binder)
chain: B13 chain with H6R, A30V, N37D, F54Y, L67V, I92M
modifications: biotinylated (AviTag system)
B15: affinity ligand SEQ ID NO: 168 (designed binder)
chain: B13 chain with A4V, H6R, D19G, F54Y, A74E
modifications: biotinylated (AviTag system)
B16: affinity ligand SEQ ID NO: 167 (designed binder)
chain: B13 chain with H6R, F54Y, A74S, A84V
modifications: biotinylated (AviTag system)
B17: affinity ligand SEQ ID NO: 84 (designed binder)
chain: MGGGGSAAAGDEGGRWEGQGAAYAARGDYDRAIEYYERALELDPNNAWAWWDLGVAYAARGDYDRAIEYYERALELDPDDATAWSRLGHAYAARGDYDRAIEYYERALELDPEDETARYLLEHARRARQGQAGQGGGSGLNDIFEAQKIEWHECHHHHHH
modifications: biotinylated (AviTag system)
B18: affinity ligand SEQ ID NO: 93 (designed binder)
chain: B17 chain with G13A, G14Q, G18N, D52E, Y63F, A83V, E113V
modifications: biotinylated (AviTag system)
B19: affinity ligand SEQ ID NO: 91 (designed binder)
chain: B17 chain with G13A, G14Q, G18N, E37G, D52E, D114N
modifications: biotinylated (AviTag system)
B20: affinity ligand SEQ ID NO: 86 (designed binder)
chain: B17 chain with G13A, G14Q, G18N, Y35C, R38S, D52E, T82I
modifications: biotinylated (AviTag system)
B21: affinity ligand SEQ ID NO: 87 (designed binder)
chain: B17 chain with G13A, G14Q, R15H, G18N, D52E, A83V
modifications: biotinylated (AviTag system)
B22: affinity ligand SEQ ID NO: 88 (designed binder)
chain: B17 chain with G13A, G14Q, R15C, G18N, D52E
modifications: biotinylated (AviTag system)
B23: affinity ligand SEQ ID NO: 94 (designed binder)
chain: MGGGGSAAAGDEAVRWEIQGAAYAARGDYDRAIEYYERALELDPNNAWAWWELGVAYAARGDYDRAIEYYERALELDPDDAHVWFRLGWAYAVRGDYDRAIEYYERALELDPEDELARRILEDARRARQGQAGQGGGSGLNDIFEAQKIEWHECHHHHHH
modifications: biotinylated (AviTag system)
B24: affinity ligand SEQ ID NO: 154 (designed binder)
chain: MGDEAERWYDLGAAYAARGDYDRAIEYYQRALELDPNDAWAWWELGVAYAARGDYDRAIEYYQRALELDPNNAVAWARLGIAYAARGDYDRAIEYYQRALELDPNNEVARDALEYARRARRCHHHHHH
modifications: biotinylated (AviTag system)
B25: affinity ligand SEQ ID NO: 163 (designed binder)
chain: MGHHHHHHDEAERWYDLGAAYAARGDYDRAIEYYQRALELDPNDAWAWWELGVAYAARGDYDRAIEYYQRALELDLNNAVAWARLGIAYAARGDYDRAIEYYQRALELDPNNEVARDALEYARRARRAPKC
modifications: biotinylated (AviTag system)

Experiments:
[1] = biological target: dimeric human IgG-lambda (Southern Biotech, Birmingham AL); assay: BLI (ForteBio), biotinylated ligand on sensor, 1:1 fit
[2] = biological target: Herceptin Fab with a kappa light chain and binding specificity for Her2/neu (from the monoclonal antibody trastuzumab); assay: as above
[3] = biological target: Tremfya Fab with a lambda light chain and binding specificity for IL23 (from the monoclonal antibody guselkumab); assay: as above
[4] = biological target: Praluent (IgG1 monoclonal antibody); assay: BLI, biotinylated ligand on sensor; 'Binding affinity (nM)'
[5] = biological target: Dupixent (IgG4 monoclonal antibody); assay: as above
[6] = biological target: Ajovy (IgG2 monoclonal antibody); assay: as above

Binder	Kd [1] [nM]	Kd [2] [nM]	Kd [3] [nM]	Kd [4] [nM]	Kd [5] [nM]	Kd [6] [nM]
B1	< 1	7	4	–	–	–
B2	< 1	67	28	–	–	–
B3	< 1	22	8	–	–	–
B4	< 1	53	26	–	–	–
B5	< 1	31	8	–	–	–
B6	< 1	23	6	–	–	–
B7	–	–	–	< 1	82	–
B8	–	–	–	< 1	28	–
B9	–	–	–	< 1	221	–
B10	–	–	–	< 1	215	–
B11	–	–	–	< 1	95	–
B12	–	–	–	< 1	242	–
B13	–	–	–	< 1	31	–
B14	–	–	–	< 1	120	–
B15	–	–	–	< 1	232	–
B16	–	–	–	< 1	31	–
B17	< 1	32	18	–	–	–
B18	< 1	15	4	–	–	–
B19	< 1	46	11	–	–	–
B20	< 1	28	8	–	–	–
B21	< 1	84	10	–	–	–
B22	< 1	32	10	–	–	–
B23	< 1	14	3	–	–	–
B24	–	–	–	< 1	13	92
B25	–	–	–	< 1	13	–
